These results are taken from patent US11278600B2, “Human alpha-galactosidase variants” (Codexis, Inc., priority 2014, dated 2022).

B1: 79 (protein)
chain: LDNGLARTPTMGWLHWERFMCNLDCQEEPDSCISEKLFMEMAELMVSEGWKDAGYEYLCIDDCWMAPQRDSEGRLQADPQRFPHGIRQLANYVHSKGLKLGIYADVGNKTCAGFPGSFGYYDIDAQTFADWGVDLLKFDGCYCDSLENLADGYKHMSLALNRTGRSIVYSCEWPLYMWPFQKPNYTEIRQYCNHWRNFADIDDSWKSIKSILDWTSFNQERIVDVAGPGGWNDPDMLVIGNFGLSWNQQVTQMALWAIMAAPLFMSNDLRHISPQAKALLQDKDVIAINQDPLGKQGYQLRQGDNFEVWERPLSGLAWAVAMINRQEIGGPRSYTIAVASLGGGVACNPACFITQLLPVKRKLGFYEWTSRLRSHINPTGTVLLQLENTMQMSKDLLL
modifications: Synthetic Polypeptide sequence of Variant No. 79 of mature Human GLA
B2: 81 (protein)
chain: B1 chain with G343K, K362R
modifications: Synthetic Polypeptide sequence of Variant No. 81 of mature Human GLA
B3: 83 (protein)
chain: B1 chain with K36E, G343K
modifications: Synthetic Polypeptide sequence of Variant No. 83 of mature Human GLA
B4: 82 (protein)
chain: B1 chain with K36D, G343K
modifications: Synthetic Polypeptide sequence of Variant No. 82 of mature Human GLA
B5: 80 (protein)
chain: B1 chain with G343K, K362Q
modifications: Synthetic Polypeptide sequence of Variant No. 80 of mature Human GLA
B6: 85 (protein)
chain: B1 chain with G343K, D395G
modifications: Synthetic Polypeptide sequence of Variant No. 85 of mature Human GLA

Numbering of substitutions follows the chain as printed.

The first data set can be described thus: HTP-analysis of yeast culture supernatants, no challenge (MUGal hydrolysis). Type of data set: biochemical. To be noted: activity of the variant/activity of WT GLA (SEQ ID NO: 5), yeast supernatant. A digest of the protocol: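 Activity read as 4-methylumbelliferyl α-D-galactopyranoside hydrolysis: fluorescence (355/448 nm) after sodium carbonate stop, following 30-180 min at 37° C with 2 mM MUGal stock at pH 4.6–4.8. Enzyme source is unchallenged culture supernatant of INVSc1 yeast expressing GLA variants, grown 66-84 h at 30° C.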
Consider B1, for which the “Relative Activity of GLA Variants After No Challenge (NC)” value is “++ (++ = >1.5 to 2.5 relative activity over WT GLA (SEQ ID NO: 5))”.

On to B2, for which the “Relative Activity of GLA Variants After No Challenge (NC)” value is recorded as “+ (+ = 0.5 to 1.5 relative activity over WT GLA (SEQ ID NO: 5))”.

Turning to B3, the “Relative Activity of GLA Variants After No Challenge (NC)” value was “+ (+ = 0.5 to 1.5 relative activity over WT GLA (SEQ ID NO: 5))”.

As to B4, the “Relative Activity of GLA Variants After No Challenge (NC)” value was “+ (+ = 0.5 to 1.5 relative activity over WT GLA (SEQ ID NO: 5))”.

As for B5, the “Relative Activity of GLA Variants After No Challenge (NC)” value is given as “+ (+ = 0.5 to 1.5 relative activity over WT GLA (SEQ ID NO: 5))”.

For B6, the “Relative Activity of GLA Variants After No Challenge (NC)” value is reported as “+ (+ = 0.5 to 1.5 relative activity over WT GLA (SEQ ID NO: 5))”.

A short description of another data set: HTP-analysis of supernatants pretreated with acid (MUGal hydrolysis). To be noted: challenge at pH 4.2; activity of the variant/activity of WT GLA (SEQ ID NO: 5); yeast supernatant. In kind it is biochemical. A digest of the protocol:
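MUGal hydrolysis was tracked by fluorescence (Ex 355 nm, Em 448 nm) after a 30-180 min reaction at 37° C. in pH 4.8 McIlvaine/citrate buffer, stopped with 1 M sodium carbonate. Beforehand, yeast (INVSc1) culture supernatants carrying GLA variants were held 1-3 h at 37° C. in acidic McIlvaine buffer, pH 3.3-4.3.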
Take B1: the “Relative Activity of GLA Variants After Challenge at pH 4.2” value (“Relative Activity … at pH 4.2” below) was “++ (++ = >1.5 to 2.5 relative activity over WT GLA (SEQ ID NO: 5))”.

Take B2: the “Relative Activity … at pH 4.2” value is “+ (+ = 0.5 to 1.5 relative activity over WT GLA (SEQ ID NO: 5))”.

For the molecule B3, the “Relative Activity … at pH 4.2” value is “++ (++ = >1.5 to 2.5 relative activity over WT GLA (SEQ ID NO: 5))”.

Take B4: the “Relative Activity … at pH 4.2” value is given as “+ (+ = 0.5 to 1.5 relative activity over WT GLA (SEQ ID NO: 5))”.

With B5, the “Relative Activity … at pH 4.2” value is on record as “+ (+ = 0.5 to 1.5 relative activity over WT GLA (SEQ ID NO: 5))”.

Regarding B6, the “Relative Activity … at pH 4.2” value is recorded as “+ (+ = 0.5 to 1.5 relative activity over WT GLA (SEQ ID NO: 5))”.

Another data set is described as follows: HTP-analysis of supernatants pretreated with base (MUGal hydrolysis). Type of data set: biochemical. To be noted: challenge at pH 7.1; activity of the variant/activity of WT GLA (SEQ ID NO: 5); yeast supernatant. A digest of the protocol: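 GLA variants secreted from yeast INVSc1; culture supernatants pre-incubated with McIlvaine buffer pH 7.0–8.2 or 200 mM bicarbonate pH 9.1–9.7 at 37° C. for 1–18 h. Residual activity: MUGal (4 mM stock) hydrolysis at pH 4.3–4.8, 37° C., 30–180 min, carbonate quench; fluorescence Ex 355/Em 448 nm.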
As to B1, the “Relative Activity of GLA Variants After Challenge at pH 7.1” value (“Relative Activity … at pH 7.1” below) is given as “++ (++ = >1.5 to 2.5 relative activity over WT GLA (SEQ ID NO: 5))”.

Regarding B2, the “Relative Activity … at pH 7.1” value is given as “+ (+ = 0.5 to 1.5 relative activity over WT GLA (SEQ ID NO: 5))”.

For B3, the “Relative Activity … at pH 7.1” value is listed as “+ (+ = 0.5 to 1.5 relative activity over WT GLA (SEQ ID NO: 5))”.

With B4, the “Relative Activity … at pH 7.1” value is on record as “+ (+ = 0.5 to 1.5 relative activity over WT GLA (SEQ ID NO: 5))”.

B5: the “Relative Activity … at pH 7.1” value was “+ (+ = 0.5 to 1.5 relative activity over WT GLA (SEQ ID NO: 5))”.

As for B6, the “Relative Activity … at pH 7.1” value is “+ (+ = 0.5 to 1.5 relative activity over WT GLA (SEQ ID NO: 5))”.
